Data taken from EP4631972A1, “SITE-SPECIFIC COUPLED PEGYLATED INTERLEUKIN-2 MUTANT WITH RECEPTOR AFFINITY PREFERENCE AND USE THEREOF” (priority 2022, dated 2024).

How the values were obtained:
IL-2αβγ triple receptor = molecular target: T1, IL-2αβγ triple receptor (Homo sapiens, UniProt P01589+P14784+P31785); assay: STAT5 reporter gene assay, activation of IL-2αβγ triple receptor in 293EC18/αβγ/JAK3/STAT5 cells; assay type: cell-based; settings: Example 4, Figure 6, 80k PEG
T1 construct: Uniprot P01589 1Met-551Ile constructed into plasmid pcDNA3.1/zeo; Uniprot P14784 1Met-551Val constructed into plasmid pcDNA3.1(+); Uniprot P31785 1Met-551Thr was constructed into plasmid pcDNA3.1/zeo; expressed in transfected cells; host or cells: 293EC18 cells, transient co-transfection with pCMV/JAK3 and PGL4.52/STAT5RE
T1 sequence (P01589 22-272): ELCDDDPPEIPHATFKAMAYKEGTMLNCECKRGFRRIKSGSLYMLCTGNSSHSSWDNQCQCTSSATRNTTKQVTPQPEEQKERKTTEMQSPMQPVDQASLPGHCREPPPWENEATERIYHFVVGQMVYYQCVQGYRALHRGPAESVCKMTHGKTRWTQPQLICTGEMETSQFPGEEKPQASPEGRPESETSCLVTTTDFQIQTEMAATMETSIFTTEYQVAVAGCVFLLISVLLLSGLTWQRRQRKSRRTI
T1 sequence (P14784 27-551): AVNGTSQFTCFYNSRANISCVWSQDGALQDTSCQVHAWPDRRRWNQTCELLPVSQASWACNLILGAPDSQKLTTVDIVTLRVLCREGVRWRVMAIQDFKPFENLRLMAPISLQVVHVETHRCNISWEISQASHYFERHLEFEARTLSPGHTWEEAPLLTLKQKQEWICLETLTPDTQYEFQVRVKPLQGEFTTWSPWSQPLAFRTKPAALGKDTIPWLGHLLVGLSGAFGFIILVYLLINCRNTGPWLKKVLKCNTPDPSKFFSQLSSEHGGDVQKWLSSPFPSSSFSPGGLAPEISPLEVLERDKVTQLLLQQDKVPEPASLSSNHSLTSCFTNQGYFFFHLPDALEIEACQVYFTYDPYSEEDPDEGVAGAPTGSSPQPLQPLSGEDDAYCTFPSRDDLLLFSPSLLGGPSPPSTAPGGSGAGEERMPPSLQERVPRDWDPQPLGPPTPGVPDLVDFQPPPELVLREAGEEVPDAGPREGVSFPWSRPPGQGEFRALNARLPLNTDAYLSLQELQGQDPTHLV
T1 sequence (P31785 23-369): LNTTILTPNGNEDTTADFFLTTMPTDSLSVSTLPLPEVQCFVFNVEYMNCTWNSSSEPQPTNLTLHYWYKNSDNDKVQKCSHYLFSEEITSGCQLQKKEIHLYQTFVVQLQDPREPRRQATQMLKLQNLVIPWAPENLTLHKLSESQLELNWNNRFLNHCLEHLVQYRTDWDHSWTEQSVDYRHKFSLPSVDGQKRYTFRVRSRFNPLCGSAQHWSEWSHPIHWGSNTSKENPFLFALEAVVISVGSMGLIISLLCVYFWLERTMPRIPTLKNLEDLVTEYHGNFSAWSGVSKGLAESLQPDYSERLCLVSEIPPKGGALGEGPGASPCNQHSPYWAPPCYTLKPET
Method: Since the binding of IL-2 to the β and γ subunits of its receptor induces STAT5 phosphorylation, which subsequently leads to dimerization and translocation into the nucleus to promote target gene transcription, this example evaluates the ability of the mutant IL-2 polypeptides to induce signaling through the IL-2 receptor by measuring STAT5 phosphorylation.
Adherent 293EC18 cells were cultured to about 90% confluence using conventional methods. After trypsin digestion, the cells were resuspended in cell culture medium to 4×10^5 cells/ml and 50 µl/well were added to two 96-well cell culture plates. After incubation at 37°C for 48 h, the supernatant was aspirated and fresh culture medium was added. […]
Each IL2 mutant was diluted 4-fold in a gradient manner using PBS buffer, with a total of 11 dilutions and a starting concentration of 65.2 nM. […] Bio-Lite Luciferase Assay System reagents that have been mixed and equilibrated to room temperature were added to the cell culture plates to be tested at 100 µl/well, placed on a microplate shaker at 450 rpm to mix for 2 minutes, then allowed to stand at room temperature for 3 minutes, and the chemiluminescence value was detected with an enzyme plate reader.
The logarithm of the final concentration of each IL-2 mutant sample was used as the X-axis, and the chemiluminescence detection results were used as the Y-axis for plotting. Data were analyzed using the four-parameter logistic regression model in GraphPad Prism 9. Table 2 EC50 values for the activation of the IL-2αβγ triple receptor by PEG-IL-2 mutants as determined by a reporter gene assay.
According to the method of Example 3, each polyethylene glycol-modified mutant obtained in this example was assessed for the binding preference to the IL2 receptors by a reporter assay. Table 4 EC50 values for the activation of the IL-2αβγ triple receptor by PEG-IL-2 mutants as determined by a reporter gene assay. […]

[1] = mouse, in vivo, sc, 1 mg/kg
Method: Balb/c mice were purchased, with 4 mice in each group. Each IL-2 mutant to be tested was administered subcutaneously once at a dose of 1 mg/kg. Blood was collected from the orbit at different time points after administration, and the plasma was separated and the plasma drug concentration was detected by ELISA. The main pharmacokinetic parameters were calculated, and C-T curve was plotted.

B1: 80K-1PEG-IL2-N88R-N77C: IL-2 mutant N88R, N77C, conjugation site 77, PEG molecular weight 80kD (conjugate)
chain: APTSSSTKKTQLQLEHLLLDLQMILNGINNYKNPKLTRMLTFKFYMPKKATELKHLQCLEEELKPLEEVLNLAQSKC(PEG 80 kDa)FHLRPRDLISRINVIVLELKGSETTFMCEYADETATIVEFLNRWITFSQSIISTLT
For B1, the “activation activity on the IL-2Rαβγ triple receptor compared with 80K-1PEG-IL2-N88R-D109C” value (IL-2αβγ triple receptor) was “slightly higher activation activity” and the T1/2 [1] was 25.23 ± 3.45 h.
